For test [1], the target named is human CXCR6[DRF] (CXC-chemokine receptor 6, wild type with the DRF motif) (human, UniProt O00574 1-342). Description: cell-based or functional assay.
Test [2] deals with T1, human CXCR6[DRY] (DRF motif mutated to DRY) (human, UniProt O00574 1-342, DRF to DRY (F128^3.51)).
T1 sequence (looked up): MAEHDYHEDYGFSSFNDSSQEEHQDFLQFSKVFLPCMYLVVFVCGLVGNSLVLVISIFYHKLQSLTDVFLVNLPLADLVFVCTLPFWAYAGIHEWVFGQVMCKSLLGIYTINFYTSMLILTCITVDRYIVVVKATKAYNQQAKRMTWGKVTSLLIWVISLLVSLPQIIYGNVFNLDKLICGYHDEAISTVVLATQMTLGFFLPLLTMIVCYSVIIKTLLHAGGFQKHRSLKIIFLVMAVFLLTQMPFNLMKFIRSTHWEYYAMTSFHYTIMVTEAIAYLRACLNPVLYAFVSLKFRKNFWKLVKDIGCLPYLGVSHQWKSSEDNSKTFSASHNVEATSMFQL
Description: cell-based or functional assay.

B1: human CXCL16-Fc fusion protein (Fc fusion, UniProt Q9H2A7 30-205, looked up)
chain: NEGSVTGSCYCGKRISSDSPPSVQFMNRLRKHLRAYHRCLYYTRFQLLSWSVCGGNKDPWVQELMSCLDLKECGHAYSGIVAHQKHLLPTSPPISQASEGASSDIHTPAQMLLSTLQSTQRPTLPVGSLSSDKELTRPNETTIHTAGHSLAAGPEAGENQKQPEKNAGPTARTSAT
On to B1, for which, in test [1], the “adhesion of THP-1 cells expressing the receptor to immobilized CXCL16-Fc for 30 min, normalized to cells adhering to anti-human-Fc” value was roughly 4 fold; the “adhesion of THP-1 cells to immobilized CXCL16-Fc for 5, 15 and 30 min, CXCR6[DRF] cells compared to CXCR6[DRY] cells” value came to 2 fold. Further, the “adhesion of THP-1 cells expressing the receptor to immobilized CXCL16-Fc for 30 min, normalized to cells adhering to anti-human-Fc” value in test [2] is roughly 4 fold.
